In paper PMC3277881 (Molecular Cell, 2011):

B1: Atg7 C-terminal domain (Atg7^CTD), yeast (domain or fragment, yeast (budding yeast))
chain: SSLLDPLKIADQSVDLNLKLMKWRILPDLNLDIIKNTKVLLLGAGTLGCYVSRALIAWGVRKITFVDNGTVSYSNPVRQALYNFEDCGKPKAELAAASLKRIFPLMDATGVKLSIPMIGHKLVNEEAQHKDFDRLRALIKEHDIIFLLVDSRESRWLPSLLSNIENKTVINAALGFDSYLVMRHGNRDEQSSKQLGCYFCHDVVAPTDSLTDRTLDQMCTVTRPGVAMMASSLAVELMTSLLQTKYSGSETTVLGDIPHQIRGFLHNFSILKLETPAYEHCPACSPKVIEAFTDLGWEFVKKALEHPLYLEEISGLSVIKQEVERLGNDVFEWEDDESDEIA
B2: full-length yeast Atg7 (enzyme, yeast (budding yeast), UniProt P38862 1-630, looked up)
chain: MSSERVLSYAPAFKSFLDTSFFQELSRLKLDVLKLDSTCQPLTVNLDLHNIPKSADQVPLFLTNRSFEKHNNKRTNEVPLQGSIFNFNVLDEFKNLDKQLFLHQRALECWEDGIKDINKCVSFVIISFADLKKYRFYYWLGVPCFQRPSSTVLHVRPEPSLKGLFSKCQKWFDVNYSKWVCILDADDEIVNYDKCIIRKTKVLAIRDTSTMENVPSALTKNFLSVLQYDVPDLIDFKLLIIRQNEGSFALNATFASIDPQSSSSNPDMKVSGWERNVQGKLAPRVVDLSSLLDPLKIADQSVDLNLKLMKWRILPDLNLDIIKNTKVLLLGAGTLGCYVSRALIAWGVRKITFVDNGTVSYSNPVRQALYNFEDCGKPKAELAAASLKRIFPLMDATGVKLSIPMIGHKLVNEEAQHKDFDRLRALIKEHDIIFLLVDSRESRWLPSLLSNIENKTVINAALGFDSYLVMRHGNRDEQSSKQLGCYFCHDVVAPTDSLTDRTLDQMCTVTRPGVAMMASSLAVELMTSLLQTKYSGSETTVLGDIPHQIRGFLHNFSILKLETPAYEHCPACSPKVIEAFTDLGWEFVKKALEHPLYLEEISGLSVIKQEVERLGNDVFEWEDDESDEIA
B3: Atg7 N-terminal domain (Atg7^NTD), yeast (domain or fragment, yeast (budding yeast), UniProt P38862 1-289, looked up)
chain: MSSERVLSYAPAFKSFLDTSFFQELSRLKLDVLKLDSTCQPLTVNLDLHNIPKSADQVPLFLTNRSFEKHNNKRTNEVPLQGSIFNFNVLDEFKNLDKQLFLHQRALECWEDGIKDINKCVSFVIISFADLKKYRFYYWLGVPCFQRPSSTVLHVRPEPSLKGLFSKCQKWFDVNYSKWVCILDADDEIVNYDKCIIRKTKVLAIRDTSTMENVPSALTKNFLSVLQYDVPDLIDFKLLIIRQNEGSFALNATFASIDPQSSSSNPDMKVSGWERNVQGKLAPRVVDLS
B4: Atg3^ΔFR (yeast Atg3 with the FR region, residues 86-159, deleted) (enzyme, yeast (budding yeast))
chain: MIRSTLSSWREYLTPITHKSTFLTTGQITPEEFVQAGDYLCHMFPTWKWNEESSDISYRDFLPKNKQFLIIRKVPCDKRAEQCVEAKDMAQERYYDLYIAYSTSYRVPKMYIVGFNSNGSPLSPEQMFEDISADYRTKTATIEKLPFYKNSVLSVSIHPCKHANVMKILLDKVRVVRQRRRKELQEEQELDGVGDWEDLQDDIDDSLRVDQYLIVFLKFITSVTPSIQHDYTMEGW

How the values were obtained:
[1] = target: B2; assay: ITC
[2] = target: the molecule itself; assay: AUC
[3] = target: T1, Atg3 (yeast) (yeast (budding yeast), UniProt P40344 1-310); assay: ITC
T1 sequence: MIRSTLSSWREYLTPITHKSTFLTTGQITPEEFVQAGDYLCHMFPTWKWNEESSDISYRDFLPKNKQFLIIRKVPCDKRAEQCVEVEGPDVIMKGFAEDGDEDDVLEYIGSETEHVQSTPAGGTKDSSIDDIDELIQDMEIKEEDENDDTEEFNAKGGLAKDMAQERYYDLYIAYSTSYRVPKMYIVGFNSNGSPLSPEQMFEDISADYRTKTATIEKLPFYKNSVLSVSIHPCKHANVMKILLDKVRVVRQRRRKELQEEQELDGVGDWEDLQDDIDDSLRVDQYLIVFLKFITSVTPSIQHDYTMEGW

SIDDIDELIQDMEIKEE (peptide, UniProt P40344 128-144, looked up) [synthetic peptide encompassing Atg3 residues 128-144 (Atg3^FRpep)]
Kd [1]: 5.9 µM

B1
stoichiometry N [2]: 2

B2
stoichiometry N [2]: 2

B3
Kd [3]: 1.85 µM

B4
fold change of Kd against Atg3 [1]: > 40 fold
